# Test results: paper PMC2367712
# Read-outs that look alike come from different tables or passages of the source.
# Legend:
# Assay in all cases: EMSA
# Lsr2 [1] = target: T1, Lsr2 (Mycobacterium tuberculosis, UniProt P9WIP7 1-112)
# Lsr2 [2] = target: T1, Lsr2; remark: listed apart in the source
# Lsr2 [3] = target: T1, Lsr2; remark: listed apart in the source
Binder,binding result (Lsr2 [3]),further results
C42 (dsDNA) DNA 1: AAAAATCTCTAAAAAATCTCTAAAAATCTCTAAAAAATCTCT DNA 2: AGAGATTTTTTAGAGATTTTTAGAGATTTTTTAGAGATTTTT,–,binding result (Lsr2 [1]): binds
lmo promoter 104 bp (dsDNA) DNA 1: TGCTGGTCAATTAGGCACTGCGTGACAATTTATCGAGTCGCACAACCGGATCATCCATCCGTTATTTACGTCAATTTAAACGGATGATCTATCCGCTGGCTCCC DNA 2: GGGAGCCAGCGGATAGATCATCCGTTTAAATTGACGTAAATAACGGATGGATGATCCGGTTGTGCGACTCGATAAATTGTCACGCAGTGCCTAATTGACCAGCA,–,binding result (Lsr2 [2]): binds
lmo 26 bp fragment 1 (46% AT) (dsDNA) DNA 1: TGCTGGTCAATTAGGCACTGCGTGAC DNA 2: GTCACGCAGTGCCTAATTGACCAGCA,binds,–
lmo 26 bp fragment 3 (65% AT) (dsDNA) DNA 1: ATCCATCCGTTATTTACGTCAATTTA DNA 2: TAAATTGACGTAAATAACGGATGGAT,binds,–
lmo 26 bp fragment 2 (54% AT) (dsDNA) DNA 1: AATTTATCGAGTCGCACAACCGGATC DNA 2: GATCCGGTTGTGCGACTCGATAAATT,binds,–
